# Experimental data published in article PMC5973699.
# Experiments:
# [1] = target: MabSelect SuRe resin ligand (engineered Protein A; alkaline resistant protein A domain); assay: capture on affinity resin
# [2] = target: GammaBind Plus resin ligand (affinity improved protein G); assay: capture on affinity resin
substance,measurement,setting,value
human IgG1 (pertuzumab) (antibody),"binding capacity, tip column, 2 pipetting cycles",[1],37 µg
same,"binding capacity, tip column, 4 pipetting cycles",[1],46 µg
same,"binding capacity, tip column, 6 pipetting cycles (µg human IgG1 per µL of resin)",[1],52
same,"binding capacity, tip column, 8 pipetting cycles (µg human IgG1 per µL of resin)",[1],54
same,"binding capacity, tip column, 9 pipetting cycles (µg human IgG1 per µL of resin)",[1],55
same,static binding capacity (batch mode) (µg human IgG1 per µL of resin),[1],62
mouse IgG1 (antibody),binding capacity (µg mouse IgG1 per µL resin),[1],25
rat IgG2a (antibody),Binding capacity (Batch Mode) (µg rat IgG2a /µL resin),[2],15
